Experimental data taken from patent publication US20230090311A1, “SELF-ASSEMBLING, SELF-A[…] FOR […] OF VACCINES” (THE UNIVERSITY OF QUEENSLAND, priority 2020, published 2023).
Values joined by “and” are separate entries in the source; they are usually repeats but may differ in a detail not shown here. Equal values may be shown once. “Also recorded” adds a separate entry of the source. No end group written: not given here.

Assays:
[1] = test system: RBD; conditions: 30 μg with CFA, single s.c. immunization; serum day 14
[2] = test system: B1; conditions: 30 μg with CFA, single s.c. immunization
[3] = test system: p145; conditions: second animal study
[4] = test system: J8; assay type: in vivo, C57BL/6 mice; conditions: first animal study (epitope arrangement); 50 μg s.c., days 0, 21, 28, 35; listed as Conjugate 3
[5] = Dynamic Light Scattering, Example 5; assay type: physicochemical; conditions: for Polydispersity index (PDI): DLS; for Particle size (nm) DLS: size as measured by intensity, 1-4 1 mg/mL, 5-11 2 mg/mL in PBS
Description: Dynamic Light Scattering. Individual compounds 1-4 (1 mg/mL in PBS) and 5-11 (2 mg/mL in PBS) were analyzed using DLS to measure particle size (zeta intensity) and PDI. The samples were treated with ultrasonication for 30 min, then transferred into disposable cuvettes. Measurement were taken at 25° C. and […] light scattering. DLS measurements were taken using a Zetasizer Nano ZP instrument (Malvern Instrument, UK) with Malvern Zetasizer Analyser 6.2 software.

[6] = Transmission Electron Microscopy, Example 5; assay type: physicochemical; conditions: negative staining; NP = nanoparticles, CLANs = chain like aggregates of nanoparticles
Excerpt: Transmission Electron Microscopy. Particle-imaging was captured using a JEM-1010 TEM (HT7700 Exalens, HITACHI Ltd., JEOL Ltd., Japan) operated at 80 kV, using negative staining. Samples of compounds 1-11 (1:2 dilution of samples prepared for DLS analysis) were applied to glow-discharged carbon-coated copper 200-mesh grids (Ted Pella) and negative-stained with 2% phosphotungstic acid.

[7] = Characterisation of nanoliposomes by DLS, Example 2; assay type: physicochemical
Description: The particle size, zeta potential and polydispersity of vaccine candidates were measured by dynamic light scattering (DLS) using zetasizer (Nano ZX, Marvern, England). The particle morphology of vaccine candidates was examined using transmission electron microscope (TEM) (HT7700 Exalens, HITACHI Ltd., Japan) after vacuum-drying. Briefly, the sample were diluted in pure distilled water (1:100) and dropped directly on a glow-discharged carbon coated copper grid and then stained with 2% uranyl acetate.

[8] = test system: E749-57 (RAHYNIVTF) peptide-specific CD8+ T-cell response; assay: IFN-gamma ELISPOT assay; assay type: in vivo, C57BL/6 mice; conditions: splenocytes ten days after immunisation, restimulated with E7 peptide
Description: The mice received single dose of vaccine.
ELISPOT plates were coated with 5 μg mL-1 IFN-g capture antibody (clone) in PBS at 4° C. overnight. The plates were then blocked with RPM/20% FCs at room temperature for 3 hours. Splenocytes from C57/BL/6 mice were harvested from the spleens of naïve and immunised mice. The red blood cells were depleted using red blood cell lysing buffer (0.155 M ammonium chloride in 0.01 M Tris-HCl buffer, Sigma). Splenocytes were then resuspended in RPMI (sigma) supplemented with 20% FACs (100 UmL-1 penicillin and 100 μg mL-1 streptomycin and 50 μM b-mercaptoethanol. The cells were plated at 5×10^5 cells per well in triplicate on ELISPOT plates. E7 peptide (10 μg mL-1) was added alongside 10 ng mL-1 rhIL-2 to a final volume of 200 μL per well. Plates were incubated for 8 hours at 37 C, washed and biotinylated IFN-g detection antibody in 1% BSA added at room temperature, plates were washed again and bound cytokine was visualised with 3-amino-9ethylcarbozole. Spots were counted with an ELISPOT reader.

[9] = test system: TC-1 tumour cells; assay: In vivo tumour treatment experiments

AIHADQLTPTWRVYSTG [Compound B1]
anti-RBD IgG [1]: did not generate anti-RBD IgG | antibody titers against the epitope itself [2]: did not generate significant antibody titers against itself

AKFVAAWTLKAAAQAEDKVKQSREAKKQVEKALKQLEDKVQ [Compound 1]
p145-specific serum IgG antibodies [3]: less efficient or completely unable to recognize p145

Ac-(Leu)15-PADRE-K-J8 (Ac-LLLLLLLLLLLLLLLAKFVAAWTLKAAAKQAEDKVKQSREAKKQVEKALKQLEDKVQ) [Compound 3]
J8-specific serum IgG antibody titers [4]: significant immunoglobulin G (IgG) titers after the primary immunization; also recorded: higher antibody titers than the previously identified lead vaccine candidate (2)

Ac-(Phe-Leu-Ala)5-PADRE-J8 (Ac-FLAFLAFLAFLAFLAAKFVAAWTLKAAAQAEDKVKQSREAKKQVEKALKQLEDKVQ) [Compound 11]
Polydispersity index (PDI) [5]: 0.44 ± 0.02 | Particle size (nm) DLS [5]: 255 ± 9 nm | Particle size (nm) TEM [6]: 10-20 nm NP and CLANs

Ac-(Ser)15-PADRE-J8 (Ac-SSSSSSSSSSSSSSSAKFVAAWTLKAAAQAEDKVKQSREAKKQVEKALKQLEDKVQ) [Compound 10]
Polydispersity index (PDI) [5]: 0.31 ± 0.02 | Particle size (nm) DLS [5]: 240 ± 9 nm | Particle size (nm) TEM [6]: 10-90 nm NP and CLANs

LLLLLLLLLLQAEPDRAHYNIVTF [Leu-8Qm]
PDI ([7]; DLS): 0.6 and 0.6 ± 0.1 | Size ([7]; DLS): 4000 ± 150 nm | Charge ([7]; zeta potential): −10 mV and −10 ± 5 mV | IFN-gamma production (ELISPOT) [8]: significantly produced IFN levels | survival of tumour-bearing mice ([9]; single dose 100 μg on day 7 after TC-1 inoculation): increased survival rate of tumour infected mice | day by which tumours of all mice exceeded 1 cm^3 ([9]; single dose on day 7 after TC-1 inoculation): 57 days
